Source: patent publication US20110150861A1

Biological target: human TNFalpha (human) (UniProt P01375)
Assay: SPR (BiaCore), antibody purified by protein A and SEC

UniProt P01375, sequence (P01375 77-233 limits assumed): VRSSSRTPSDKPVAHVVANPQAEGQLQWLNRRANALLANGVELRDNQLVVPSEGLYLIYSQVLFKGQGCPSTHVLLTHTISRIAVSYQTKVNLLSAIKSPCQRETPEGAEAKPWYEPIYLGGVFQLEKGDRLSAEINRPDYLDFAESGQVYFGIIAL

Kd: 0.0729 nM | koff: 0.00011 s⁻¹ | kon: 1.51e+06 M⁻¹ s⁻¹
Substance: D2E7 antibody product secreted from sORF construct pTT3-pfu lon HL (-)
